{"source": "paper PMC9477564", "about": "(Nature structural & molecular biology, 2021)", "biological_target": "the molecule itself", "assay": "SEC-MALS", "data": [{"protein": "Get3(D68N) (enzyme) not shown", "values": [{"measurement": "stoichiometry N", "value": 2}]}]}
